Laboratory results from US20140303084.
Residue numbers refer to the chain shown, from its start.

Assays:
[1] = tested on: T1, WRAGLDESQR DRAPG KLTCLASYCWLFWTGIA
T1 sequence: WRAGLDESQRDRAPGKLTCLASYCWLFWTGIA

KLT-Glu-LASY-Orn-WLF = tested on: T2, KLT-Glu-LASY-Orn-WLF
T2 sequence: KLTELASYXWLF

[2] = tested on: T3, R-MeArg-APGKLTCLASYCWLFWTGIA
T3 sequence: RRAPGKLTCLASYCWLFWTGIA

[3] = tested on: T4, rRAPGKLTCLASYCWLFWTGIA-PEG16-Lys(PEG2-Biotin)-PEG16
T4 sequence: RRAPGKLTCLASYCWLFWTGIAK

KLT-Glu-LASY-Dab-WLF = tested on: T5, KLT-Glu-LASY-Dab-WLF
T5 sequence: KLTELASYXWLF

RRAPGKLQCLASYCWLFWTAIA = tested on: T6, RRAPGKLQCLASYCWLFWTAIA
T6 sequence: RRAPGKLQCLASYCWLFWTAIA

[4] = tested on: T7, PRIRTVGPGSRSASGKLTCLASYCWLFATGIA
T7 sequence: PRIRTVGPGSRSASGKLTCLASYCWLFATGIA

KLTALASYCWLF = tested on: T8, KLTALASYCWLF
T8 sequence: KLTALASYCWLF

[5] = tested on: T9, SKQARPISPDrRAAGKLTCLASYCWLFWTGIA
T9 sequence: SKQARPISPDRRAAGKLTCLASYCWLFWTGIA

RRAPGKLTCLASYCWlFWTGIA = tested on: T10, RRAPGKLTCLASYCWlFWTGIA
T10 sequence: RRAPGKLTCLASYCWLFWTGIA

ARAPGKLQCLASYCWLFWTGIA = tested on: T11, ARAPGKLQCLASYCWLFWTGIA
T11 sequence: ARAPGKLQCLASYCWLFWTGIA

KLTCLASYCQLV = tested on: T12, KLTCLASYCQLV
T12 sequence: KLTCLASYCQLV

[6] = tested on: T13, RRAPGKLTCLASYCWLF ATGVT FPQIWAIPSP
T13 sequence: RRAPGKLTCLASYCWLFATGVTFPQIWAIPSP

RRAAGKLQCLASYCWLFWTGIA = tested on: T14, RRAAGKLQCLASYCWLFWTGIA
T14 sequence: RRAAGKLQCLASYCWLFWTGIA

RRAPKKLQCLASYCWLFWTGIA = tested on: T15, RRAPKKLQCLASYCWLFWTGIA
T15 sequence: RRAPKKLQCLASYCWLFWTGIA

[7] = tested on: T16, RRAPGKLT-Lys-LASY-Glu-WLFWTGIA-CONH2
T16 sequence: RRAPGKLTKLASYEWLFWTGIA

KLTCLASYCWAF = tested on: T17, KLTCLASYCWAF
T17 sequence: KLTCLASYCWAF

KKTCLASYCWLF = tested on: T18, KKTCLASYCWLF
T18 sequence: KKTCLASYCWLF

KLTCQASYCWLF = tested on: T19, KLTCQASYCWLF
T19 sequence: KLTCQASYCWLF

[8] = tested on: T20, AVVRGQEPTH RRTPG KLTCLASYCWLFWTGIA
T20 sequence: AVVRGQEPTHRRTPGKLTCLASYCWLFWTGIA

KGAYQKLTCLASYCLLFLLTAQ = tested on: T21, KGAYQKLTCLASYCLLFLLTAQ
T21 sequence: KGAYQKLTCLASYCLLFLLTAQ

[9] = tested on: T22, RRAPGKLTCLASYCWLF STPVA RKSLRRHQPT
T22 sequence: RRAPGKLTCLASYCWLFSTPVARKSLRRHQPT

[10] = tested on: T23, RRFVGGSLSQ RRAPG KLTCLASYCWLFWTGIA
T23 sequence: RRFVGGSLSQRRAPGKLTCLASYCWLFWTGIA

[11] = tested on: T24, RPRSSAHDRP RRAAG KLTCLASYCWLFWTGIA
T24 sequence: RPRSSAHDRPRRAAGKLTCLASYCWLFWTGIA

[12] = tested on: T25, RRAPGKLTCLK(PEG2-Biotin)SYCWLFWTGIA
T25 sequence: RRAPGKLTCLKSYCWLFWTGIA

[13] = tested on: T26, PRSRTVGPGSRSASGKSTCLASYCWLFWTGIA
T26 sequence: T7 sequence with I3S, L17S, A28W

KLTCLKSYCWLF = tested on: T27, KLTCLKSYCWLF
T27 sequence: KLTCLKSYCWLF

rRAAGKLTCLASACWLFATGIA = tested on: T28, rRAAGKLTCLASACWLFATGIA
T28 sequence: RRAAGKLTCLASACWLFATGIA

[14] = tested on: T29, PRIRTVGPGSRSASGKSTCLASYCWLFWTGIA
T29 sequence: T7 sequence with L17S, A28W

[15] = tested on: T30, RRAPGKLT-Dab-LASY-Asp-WLFWTGIA-COOH
T30 sequence: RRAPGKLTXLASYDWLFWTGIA

R-k-MeLeu-TCLASYCWLF = tested on: T31, R-k-MeLeu-TCLASYCWLF
T31 sequence: RKLTCLASYCWLF

Dab-LTCLASYCWLF = tested on: T32, Dab-LTCLASYCWLF
T32 sequence: XLTCLASYCWLF

rRAPGKLTCLASSCWLFWTGIA = tested on: T33, rRAPGKLTCLASSCWLFWTGIA
T33 sequence: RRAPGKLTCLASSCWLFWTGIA

[16] = tested on: T34, VGSGDERALP SRASG KLTCLASYCWLFWTGIA
T34 sequence: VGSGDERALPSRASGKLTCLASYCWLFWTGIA

KLTCLAsYCWLF = tested on: T35, KLTCLAsYCWLF
T35 sequence: KLTCLASYCWLF

KLTCLASYCW-MeLeu-F = tested on: T36, KLTCLASYCW-MeLeu-F
T36 sequence: KLTCLASYCWLF

[17] = tested on: T37, AVDSLPLYGA RSAPS KLTCLASYCWLFWTGIA
T37 sequence: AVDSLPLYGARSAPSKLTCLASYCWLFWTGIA

rRASGKLTCLASYCWLFWTGIA = tested on: T38, rRASGKLTCLASYCWLFWTGIA
T38 sequence: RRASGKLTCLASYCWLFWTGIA

[18] = tested on: T39, RRAPGKLTCLASYCWLF VTGTA HAPRVAPAPA
T39 sequence: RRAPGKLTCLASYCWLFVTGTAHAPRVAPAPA

[19] = tested on: T40, C(PEG5k)GGG-RRAPGKLT-Asp-LASY-Lys-WLFWTGIA
T40 sequence: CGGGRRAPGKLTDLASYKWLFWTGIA

LTCLASYCWLF = tested on: T41, LTCLASYCWLF
T41 sequence: LTCLASYCWLF

[20] = tested on: T42, RRAPGKLTCLASYCWLF FTGVA RSTTATTNTQ
T42 sequence: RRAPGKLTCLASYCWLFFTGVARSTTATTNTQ

[21] = tested on: T43, RRAPGCLTALASYCWLFWTGIA-COOH
T43 sequence: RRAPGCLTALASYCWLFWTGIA

compound 1 = tested on: T44, compound 1
T44 sequence: KLTCLASYCWLF

compound 19 = tested on: T45, compound 19
T45 sequence: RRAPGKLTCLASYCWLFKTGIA

rRAPGKSTCLASYCWLFWTGIA = tested on: T46, rRAPGKSTCLASYCWLFWTGIA
T46 sequence: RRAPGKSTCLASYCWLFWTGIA

[22] = tested on: T47, RRAPGK-MeLeu-TCLASYCWLFWTGIA
T47 sequence: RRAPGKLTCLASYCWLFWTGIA

[23] = tested on: T48, RRAPGKLTCLASYCWLF WTGFA FRVGLASSLY
T48 sequence: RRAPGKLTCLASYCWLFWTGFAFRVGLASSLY

Q: Which results are given for human Factor IXa?
A: Vmax, FXa generation assay; (++) means 1-2 [1]: (++); Vmax, FXa generation assay; (++) means 1-2 (KLT-Glu-LASY-Orn-WLF): (++); Vmax, FXa generation assay; (++) means 1-2 [2]: (++); Vmax, FXa generation assay [3]: > 3; Vmax, FXa generation assay; (++) means 1-2 (KLT-Glu-LASY-Dab-WLF): (++); Vmax, FXa generation assay (RRAPGKLQCLASYCWLFWTAIA): > 2; Vmax, FXa generation assay [4]: > 3; Vmax, FXa generation assay; (++) means 1-2 (KLTALASYCWLF): (++); Vmax, FXa generation assay [5]: > 3; Vmax, FXa generation assay; (++) means 1-2 (RRAPGKLTCLASYCWlFWTGIA): (++); Vmax, FXa generation assay (ARAPGKLQCLASYCWLFWTGIA): > 2; Vmax, FXa generation assay (KLTCLASYCQLV): > 2; Vmax, FXa generation assay [6]: > 3; Vmax, FXa generation assay (RRAAGKLQCLASYCWLFWTGIA): > 2; Vmax, FXa generation assay; (++) means 1-2 (RRAPKKLQCLASYCWLFWTGIA): (++); Vmax, FXa generation assay; (++) means 1-2 [7]: (++); Vmax, FXa generation assay (KLTCLASYCWAF): > 2; Vmax, FXa generation assay; (++) means 1-2 (KKTCLASYCWLF): (++); Vmax, FXa generation assay; (++) means 1-2 (KLTCQASYCWLF): (++); Vmax, FXa generation assay [8]: > 3; Vmax, FXa generation assay; (++) means 1-2 (KGAYQKLTCLASYCLLFLLTAQ): (++); Vmax, FXa generation assay [9]: > 3; Vmax, FXa generation assay [10]: > 3; Vmax, FXa generation assay [11]: > 3; Vmax, FXa generation assay; (++) means 1-2 [12]: (++); Vmax, FXa generation assay [13]: > 3; Vmax, FXa generation assay; (++) means 1-2 (KLTCLKSYCWLF): (++); Vmax, FXa generation assay; (++) means 1-2 (rRAAGKLTCLASACWLFATGIA): (++); Vmax, FXa generation assay [14]: > 3; Vmax, FXa generation assay; (++) means 1-2 [15]: (++); Vmax, FXa generation assay (R-k-MeLeu-TCLASYCWLF): > 3; Vmax, FXa generation assay; (++) means 1-2 (Dab-LTCLASYCWLF): (++); Vmax, FXa generation assay; (++) means 1-2 (rRAPGKLTCLASSCWLFWTGIA): (++); Vmax, FXa generation assay [16]: > 2; Vmax, FXa generation assay (KLTCLAsYCWLF): > 2; Vmax, FXa generation assay (KLTCLASYCW-MeLeu-F): > 2; Vmax, FXa generation assay; (++) means 1-2 [17]: (++); Vmax, FXa generation assay; (++) means 1-2 (rRASGKLTCLASYCWLFWTGIA): (++); Vmax, FXa generation assay [18]: > 3; Vmax, FXa generation assay; (++) means 1-2 [19]: (++); Vmax, FXa generation assay; (++) means 1-2 (LTCLASYCWLF): (++); Vmax, FXa generation assay [20]: > 2; Vmax, FXa generation assay [21]: > 2; (kcat/KM)app (M^-1s^-1) of FIXa on the chromogenic substrate, compound 1 at 10 µM (compound 1): 1360 M⁻¹ s⁻¹; Vmax (mOD/min min), with phospholipids (compound 1): 3.98 mOD/min min; Vmax (mOD/min min), without phospholipids (compound 1): 2.6 mOD/min min; Vmax, FXa generation assay with hFIXa (compound 1): > 2; kcat (min^-1) of hFIXa for FX, compound at 3 µM (compound 1): 0.0144 min⁻¹; Δ KM (Km compound/Km buffer) (compound 1): 0.31; Vmax, FXa generation assay with hFIXa (compound 19): > 2; Vmax, FXa generation assay; (++) means 1-2 (rRAPGKSTCLASYCWLFWTGIA): (++); Vmax, FXa generation assay; (++) means 1-2 [22]: (++); Vmax, FXa generation assay [23]: > 3
